Target: the molecule itself
Assay: SEC

B1: N-acetyl sugar amidotransferase from Legionella pneumophila (enzyme)
chain: MSNARIGIDMSKIYAPKSIDLSSFQLPDEKLQTKYGLPHKVEFCKSCVISNQRPNSAVEYEHKKESKKHTIHFDDEGICDACRVAERKKSTINWEERDRQLRELCDRFRSKDGSYDCVVPGSGGKDSFYAAHILKYKYGMNPLTVTWAPHMYTPWGWRNFQSWIHAGFDNHLFTPNGRVHRLLTRLAVENLFHPFQPFMIGQKAYAPKMALLHKIKLVVYGENEAEYGNPIGDTESAKRDWKYFTADDKSKIFLGGTSVQELKSDFGLNDNDLDAYLPADPQQIEEQQVEVHYLGYYLKWHPQSCYYYSVEHGGFEASPERTPGTYSKYNSIDDKIDDFHYYTTLTKFGIGRATYDASQEIRSGDITREEGVALVKRFDQEFPERFAEEIFKYLSINLKEFPIASQMFEQPIMDRAYFMALADTFRSPHLWKKDGEQWKLRHQVTNLEKTKAEYLDLETV
notes: also called LpNASAT; NASAT
- stoichiometry N: 2
